Source: patent US20260125457A1 (Janssen / Centocor, published 2026)

T1: wild-type calreticulin (CALRwt) expressed with MPL in engineered cancer cells (UniProt P27797 18-417, limits assumed)
T1 construct: whole, on cells; also called OCI-M2 MPL CALRwt
T1 sequence (looked up): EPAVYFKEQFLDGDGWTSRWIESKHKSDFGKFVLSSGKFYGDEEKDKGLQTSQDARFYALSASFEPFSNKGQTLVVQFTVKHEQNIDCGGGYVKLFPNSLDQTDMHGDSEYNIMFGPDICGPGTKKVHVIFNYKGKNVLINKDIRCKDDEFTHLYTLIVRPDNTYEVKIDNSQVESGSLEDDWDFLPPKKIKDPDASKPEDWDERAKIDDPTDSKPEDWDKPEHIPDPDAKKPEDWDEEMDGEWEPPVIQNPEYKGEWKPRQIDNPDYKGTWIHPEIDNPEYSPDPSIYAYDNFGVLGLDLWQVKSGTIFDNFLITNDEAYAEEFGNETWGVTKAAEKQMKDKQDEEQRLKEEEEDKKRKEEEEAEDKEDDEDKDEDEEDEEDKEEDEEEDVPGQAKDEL

T2: CALRins5 (mutant calreticulin, 5 base pair insertion, Type 2) expressed with MPL on engineered cancer cells (UniProt P27797 18-417)
T2 construct: whole, on cells; On the cell surface in complex with MPL; also called OCI-M2 MPL CALRins5
T2 sequence (looked up): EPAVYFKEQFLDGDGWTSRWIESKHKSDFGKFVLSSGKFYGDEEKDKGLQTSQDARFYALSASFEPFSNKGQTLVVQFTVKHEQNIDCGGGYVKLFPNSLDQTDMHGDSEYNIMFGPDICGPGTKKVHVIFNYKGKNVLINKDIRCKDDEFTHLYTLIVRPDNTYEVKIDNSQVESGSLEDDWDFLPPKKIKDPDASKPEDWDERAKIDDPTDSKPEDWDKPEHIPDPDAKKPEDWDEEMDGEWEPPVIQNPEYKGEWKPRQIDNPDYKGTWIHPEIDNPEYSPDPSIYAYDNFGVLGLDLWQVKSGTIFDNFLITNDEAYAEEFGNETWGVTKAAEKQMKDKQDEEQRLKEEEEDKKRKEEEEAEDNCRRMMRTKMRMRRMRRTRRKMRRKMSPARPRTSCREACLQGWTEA


Assays:
[1] = molecular target: T1, wild-type calreticulin (CALRwt) …; assay: flow cytometry on OCI-M2 MPL CALRwt cells, 1 h at 37 C, AF647 secondary antibody, Geometric mean
Method: (§1) FIGS. 27A-27F depict binding of different CALRmutxCD3 antibodies to CALRmut-negative or CALRmut-positive cells. Flow cytometry was used to evaluate CALRmutxCD3 binding to CALRmut-negative and CALRmut-positive cancer cells in vitro. CALRmutxCD3 antibodies were tested on a panel of cell lines, engineered to express MPL and CALRmut, after 1 hour 37° C. incubation, with subsequent incubation with secondary AF647-labeled antibody. Geometric mean fluorescence intensity of AF647 was measured to determine antibody binding.

[2] = molecular target: T2, CALRins5 (mutant calreticulin, 5 base …); assay: flow cytometry on OCI-M2 MPL CALRins5 cells, 1 h at 37 C, AF647 secondary antibody, Geometric mean
Method: as §1

[3] = molecular target: T2, CALRins5 (mutant calreticulin, 5 base …); assay: flow cytometry on ELF-153 MPL CALRins5 cells, 1 h at 37 C, AF647 secondary antibody, Geometric mean
Method: as §1

binding result [1]	EC50 (read off the curve) [2] [nM]	EC50 (read off the curve) [3] [nM]	Binder
no binding (tested: 100 nM)	~5	~1	C3CRB133 CALRmut x CD3 bispecific antibody (bispecific antibody, human IgG1, kappa, L234A L235A, Chain B heavy: CALRB1114 spFv N-terminal of the CALRB421 heavy chain) scFv: DIQMTQSPSSLSASVGDRVTITCRARQSIGTAIHWYQQKPGCAPKLLIKYASESISGVPSRFSGSGSGTDFTLTISSLQPEDFATYYCQQSGSWPYTFGQGTKLEIKGGGSGGSGGCPPCGGSGGEVQLVESGGGLVKPGGSLRLSCAASGFTFSRYNMNWVRQAPGKGLEWVSSISTSSNYIYYADSVKGRFTFSRDNAKNSLDLQMSGLRAEDTAIYYCTRGWGPFDYWGCGTLVTVSSEPKSSDKTHTCPPCPAPEAAGGPSVFLFPPKPKDTLMISRTPEVTCVVVSVSHEDPEVKFNWYVDGVEVHNAKTKPREEQYNSTYRVVSVLTVLHQDWLNGKEYKCKVSNKALPAPIEKTISKAKGQPREPQVYTLPPSREEMTKNQVSLWCLVKGFYPSDIAVEWESNGQPENNYKTTPPVLDSDGSFFLYSKLTVDKSRWQQGNVFSCSVMHEALHNHYTQKSLSLSPGK heavy: DIQMTQSPSTLSASVGDRVTITCQASQSLYNNKNLAWYQQKPGCAPKLLIYYASALASGVPSRFSGSGSGTEFTLTISSLQPDDFATYYCQGEFNCNSADCNSFGGGTKVEIKGGGSGGSGGCPPCGGSGGQVQLVQSGAEVKKPGASVKVSCKASGFSLSSYAMSWVRQAPGQGLEWMGVIDSGGTTYYAQKFQGRVTMTRDTSTSTVYMELSSLRSEDTAVYYCARESYAGYDYYGHPIPYGMEPWGCGTLVTVSSGGGGSGGGGSEVQLLESGGGLVQPGGSLRLSCAVSGIDLSNNAISWVRQAPGKGLEYVGVIGNTGDTYYADSAKGRFTISRDSSKTTLYLQMNSLRAEDTAVYFCVRGPPSYSSSVKNIWGQGTLVTVSSASTKGPSVFPLAPSSKSTSGGTAALGCLVKDYFPEPVTVSWNSGALTSGVHTFPAVLQSSGLYSLSSVVTVPSSSLGTQTYICNVNHKPSNTKVDKKVEPKSCDKTHTCPPCPAPEAAGGPSVFLFPPKPKDTLMISRTPEVTCVVVSVSHEDPEVKFNWYVDGVEVHNAKTKPREEQYNSTYRVVSVLTVLHQDWLNGKEYKCKVSNKALPAPIEKTISKAKGQPREPQVYTLPPSREEMTKNQVSLSCAVKGFYPSDIAVEWESNGQPENNYKTTPPVLDSDGSFFLVSKLTVDKSRWQQGNVFSCSVMHEALHNRFTQKSLSLSPGK light: DIQMTQSPSSVSASVGDRVTITCQSSQSVYNNNWLSWLQQKPGKAPKRLIYDASKLESGVPSRFSGSGSGTDFTLTISSVQPEDAATYYCAGGFTGNVYTFGGGTKVEIKRTVAAPSVFIFPPSDEQLKSGTASVVCLLNNFYPREAKVQWKVDNALQSGNSQESVTEQDSKDSTYSLSSTLTLSKADYEKHKVYACEVTHQGLSSPVTKSFNRGEC
no binding (tested: 100 nM)	~3	~1	C3CRB134 CALRmut x CD3 bispecific antibody (bispecific antibody, Chain B heavy: CALRB421 Fab heavy part, CALRB1114 spFv, Fc) scFv: DIQMTQSPSSLSASVGDRVTITCRARQSIGTAIHWYQQKPGCAPKLLIKYASESISGVPSRFSGSGSGTDFTLTISSLQPEDFATYYCQQSGSWPYTFGQGTKLEIKGGGSGGSGGCPPCGGSGGEVQLVESGGGLVKPGGSLRLSCAASGFTFSRYNMNWVRQAPGKGLEWVSSISTSSNYIYYADSVKGRFTFSRDNAKNSLDLQMSGLRAEDTAIYYCTRGWGPFDYWGCGTLVTVSSEPKSSDKTHTCPPCPAPEAAGGPSVFLFPPKPKDTLMISRTPEVTCVVVSVSHEDPEVKFNWYVDGVEVHNAKTKPREEQYNSTYRVVSVLTVLHQDWLNGKEYKCKVSNKALPAPIEKTISKAKGQPREPQVYTLPPSREEMTKNQVSLWCLVKGFYPSDIAVEWESNGQPENNYKTTPPVLDSDGSFFLYSKLTVDKSRWQQGNVFSCSVMHEALHNHYTQKSLSLSPGK heavy: EVQLLESGGGLVQPGGSLRLSCAVSGIDLSNNAISWVRQAPGKGLEYVGVIGNTGDTYYADSAKGRFTISRDSSKTTLYLQMNSLRAEDTAVYFCVRGPPSYSSSVKNIWGQGTLVTVSSASTKGPSVFPLAPSSKSTSGGTAALGCLVKDYFPEPVTVSWNSGALTSGVHTFPAVLQSSGLYSLSSVVTVPSSSLGTQTYICNVNHKPSNTKVDKKVEPKSCGGGGSGGGGSDIQMTQSPSTLSASVGDRVTITCQASQSLYNNKNLAWYQQKPGCAPKLLIYYASALASGVPSRFSGSGSGTEFTLTISSLQPDDFATYYCQGEFNCNSADCNSFGGGTKVEIKGGGSGGSGGCPPCGGSGGQVQLVQSGAEVKKPGASVKVSCKASGFSLSSYAMSWVRQAPGQGLEWMGVIDSGGTTYYAQKFQGRVTMTRDTSTSTVYMELSSLRSEDTAVYYCARESYAGYDYYGHPIPYGMEPWGCGTLVTVSSEPKSSDKTHTCPPCPAPEAAGGPSVFLFPPKPKDTLMISRTPEVTCVVVSVSHEDPEVKFNWYVDGVEVHNAKTKPREEQYNSTYRVVSVLTVLHQDWLNGKEYKCKVSNKALPAPIEKTISKAKGQPREPQVYTLPPSREEMTKNQVSLSCAVKGFYPSDIAVEWESNGQPENNYKTTPPVLDSDGSFFLVSKLTVDKSRWQQGNVFSCSVMHEALHNRFTQKSLSLSPGK light: DIQMTQSPSSVSASVGDRVTITCQSSQSVYNNNWLSWLQQKPGKAPKRLIYDASKLESGVPSRFSGSGSGTDFTLTISSVQPEDAATYYCAGGFTGNVYTFGGGTKVEIKRTVAAPSVFIFPPSDEQLKSGTASVVCLLNNFYPREAKVQWKVDNALQSGNSQESVTEQDSKDSTYSLSSTLTLSKADYEKHKVYACEVTHQGLSSPVTKSFNRGEC
no binding (tested: 100 nM)	–	~1	C3CRB137 CALRmut x CD3 bispecific antibody (bispecific antibody, human IgG1, kappa, L234A L235A, Chain B heavy: two CALRB421 Fab heavy parts in tandem, Fc) scFv: DIQMTQSPSSLSASVGDRVTITCRARQSIGTAIHWYQQKPGCAPKLLIKYASESISGVPSRFSGSGSGTDFTLTISSLQPEDFATYYCQQSGSWPYTFGQGTKLEIKGGGSGGSGGCPPCGGSGGEVQLVESGGGLVKPGGSLRLSCAASGFTFSRYNMNWVRQAPGKGLEWVSSISTSSNYIYYADSVKGRFTFSRDNAKNSLDLQMSGLRAEDTAIYYCTRGWGPFDYWGCGTLVTVSSEPKSSDKTHTCPPCPAPEAAGGPSVFLFPPKPKDTLMISRTPEVTCVVVSVSHEDPEVKFNWYVDGVEVHNAKTKPREEQYNSTYRVVSVLTVLHQDWLNGKEYKCKVSNKALPAPIEKTISKAKGQPREPQVYTLPPSREEMTKNQVSLWCLVKGFYPSDIAVEWESNGQPENNYKTTPPVLDSDGSFFLYSKLTVDKSRWQQGNVFSCSVMHEALHNHYTQKSLSLSPGK heavy: EVQLLESGGGLVQPGGSLRLSCAVSGIDLSNNAISWVRQAPGKGLEYVGVIGNTGDTYYADSAKGRFTISRDSSKTTLYLQMNSLRAEDTAVYFCVRGPPSYSSSVKNIWGQGTLVTVSSASTKGPSVFPLAPSSKSTSGGTAALGCLVKDYFPEPVTVSWNSGALTSGVHTFPAVLQSSGLYSLSSVVTVPSSSLGTQTYICNVNHKPSNTKVDKKVEPKSCGGGGSGGGGSEVQLLESGGGLVQPGGSLRLSCAVSGIDLSNNAISWVRQAPGKGLEYVGVIGNTGDTYYADSAKGRFTISRDSSKTTLYLQMNSLRAEDTAVYFCVRGPPSYSSSVKNIWGQGTLVTVSSASTKGPSVFPLAPSSKSTSGGTAALGCLVKDYFPEPVTVSWNSGALTSGVHTFPAVLQSSGLYSLSSVVTVPSSSLGTQTYICNVNHKPSNTKVDKKVEPKSCDKTHTCPPCPAPEAAGGPSVFLFPPKPKDTLMISRTPEVTCVVVSVSHEDPEVKFNWYVDGVEVHNAKTKPREEQYNSTYRVVSVLTVLHQDWLNGKEYKCKVSNKALPAPIEKTISKAKGQPREPQVYTLPPSREEMTKNQVSLSCAVKGFYPSDIAVEWESNGQPENNYKTTPPVLDSDGSFFLVSKLTVDKSRWQQGNVFSCSVMHEALHNRFTQKSLSLSPGK light: DIQMTQSPSSVSASVGDRVTITCQSSQSVYNNNWLSWLQQKPGKAPKRLIYDASKLESGVPSRFSGSGSGTDFTLTISSVQPEDAATYYCAGGFTGNVYTFGGGTKVEIKRTVAAPSVFIFPPSDEQLKSGTASVVCLLNNFYPREAKVQWKVDNALQSGNSQESVTEQDSKDSTYSLSSTLTLSKADYEKHKVYACEVTHQGLSSPVTKSFNRGEC
